In series [1] the target is T1, GUN1-PS (Arabidopsis thaliana, UniProt Q9SIC9 232-918).
T1 sequence: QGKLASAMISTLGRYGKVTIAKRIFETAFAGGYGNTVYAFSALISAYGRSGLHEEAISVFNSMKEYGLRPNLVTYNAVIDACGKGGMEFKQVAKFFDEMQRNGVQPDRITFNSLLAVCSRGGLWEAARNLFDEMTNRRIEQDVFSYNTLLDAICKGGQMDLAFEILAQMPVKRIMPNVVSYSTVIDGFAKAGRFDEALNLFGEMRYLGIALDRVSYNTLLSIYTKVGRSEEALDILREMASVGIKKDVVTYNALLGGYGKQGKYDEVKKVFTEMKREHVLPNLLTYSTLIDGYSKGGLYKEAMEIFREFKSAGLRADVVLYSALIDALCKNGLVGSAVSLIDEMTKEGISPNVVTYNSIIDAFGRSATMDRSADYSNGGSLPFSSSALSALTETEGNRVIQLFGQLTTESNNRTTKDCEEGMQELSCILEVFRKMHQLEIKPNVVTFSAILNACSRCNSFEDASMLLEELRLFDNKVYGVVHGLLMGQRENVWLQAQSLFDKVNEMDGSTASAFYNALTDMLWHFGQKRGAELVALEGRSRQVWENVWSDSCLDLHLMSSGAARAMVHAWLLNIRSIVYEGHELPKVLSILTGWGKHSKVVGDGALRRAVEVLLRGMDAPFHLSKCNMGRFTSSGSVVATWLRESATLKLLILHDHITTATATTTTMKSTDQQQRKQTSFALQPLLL
Kind of series: EMSA; 100-600 nM protein; 5x buffer (4 ul per reaction): 50 mM Tris-HCl pH 7.5, 50 mM NaCl, 200 mM KCl, 5 mM MgCl2, 5 mM EDTA, 5 mM DTT, 0.25 mg/ml BSA, 5% glycerol; 30 min at 23 C; 5% native PAGE, 0.5x TBE, 4 C. Particulars: protein: recombinant, tags: N-terminal TRX-His.

Series [2] addresses T1, GUN1-PS. Kind of series: EMSA; binding at 37 C, gel at room temperature; similar to RNA1; 5x buffer (4 ul per reaction): 50 mM Tris-HCl pH 7.5, 50 mM NaCl, 200 mM KCl, 5 mM MgCl2, 5 mM EDTA, 5 mM DTT, 0.25 mg/ml BSA, 5% glycerol; 30 min at 23 C; 5% native PAGE, 0.5x TBE, 4 C. Particulars: protein: recombinant; tags: N-terminal TRX-His.
Series [3] has as its target T1, GUN1-PS. The series is described as follows: competition; vs Cy5-ndhG, 5-50x; 5x buffer (4 ul per reaction): 50 mM Tris-HCl pH 7.5, 50 mM NaCl, 200 mM KCl, 5 mM MgCl2, 5 mM EDTA, 5 mM DTT, 0.25 mg/ml BSA, 5% glycerol; 30 min at 23 C; 5% native PAGE, 0.5x TBE, 4 C. Conditions: protein: recombinant; tags: N-terminal TRX-His; hairpin loop (predicted).
Series [4] deals with T1, GUN1-PS. Kind of series: EMSA; binding at 37 C, gel at room temperature; no clear shift; 5x buffer (4 ul per reaction): 50 mM Tris-HCl pH 7.5, 50 mM NaCl, 200 mM KCl, 5 mM MgCl2, 5 mM EDTA, 5 mM DTT, 0.25 mg/ml BSA, 5% glycerol; 30 min at 23 C; 5% native PAGE, 0.5x TBE, 4 C. Particulars: protein: recombinant; tags: N-terminal TRX-His. Background: Mobility shift assays separate free from complexed probe on a gel.

Series [5] concerns the target T1, GUN1-PS. Kind of series: competition; vs Cy5-trnG.1, 5-50x; 5x buffer (4 ul per reaction): 50 mM Tris-HCl pH 7.5, 50 mM NaCl, 200 mM KCl, 5 mM MgCl2, 5 mM EDTA, 5 mM DTT, 0.25 mg/ml BSA, 5% glycerol; 30 min at 23 C; 5% native PAGE, 0.5x TBE, 4 C. Conditions: protein: recombinant; tags: N-terminal TRX-His.
Series [6] addresses T1, GUN1-PS. Kind of series: competition; vs Cy5-23S_104856, 5-50x; reduces the weak shift; 5x buffer (4 ul per reaction): 50 mM Tris-HCl pH 7.5, 50 mM NaCl, 200 mM KCl, 5 mM MgCl2, 5 mM EDTA, 5 mM DTT, 0.25 mg/ml BSA, 5% glycerol; 30 min at 23 C; 5% native PAGE, 0.5x TBE, 4 C. Particulars: protein: recombinant; tags: N-terminal TRX-His.

On to AUUUGGGAAUUUCUCCAUCCAUCAU (ssRNA) [trnG.1], for which the binding result in series [1] is given as “binds”.
As for GGACCGAAUGAUCUAUCUCU (ssRNA) [Kim_RNA3 (BLRP mut)], the binding result in series [2] is recorded as “no binding”.
Consider AGAAAAAAAUCUGUUGAUAAAUGAA (ssRNA) [ndhG_118454 unlabeled], for which the binding result in series [3] is given as “binds”.
As to GGAAAUCCGUCGAUAUCUCU (ssRNA) [Kim_RNA1 (BLRP)], the binding result in series [4] is “no binding”.
With AUUUGGGAAUUUCUCCAUCCAUCAU (ssRNA) [trnG.1 unlabeled], in series [5], the binding result is “binds”.
Turning to AUUCUUAUGUGGCAGUCUCUAGUCCACUAGCUUUUG (ssRNA) [nonspecific competitor for 23S and ndhG], in series [6], the binding result was “binds”.
In the case of AGAAAAAAAUCUGUUGAUAAAUGAA (ssRNA) [ndhG_118454], the binding result in series [1] (hairpin loop (predicted)) is listed as “binds”.
With GCAUCUGAAUUUCAUAACCAAUCUCGAU (ssRNA) [nonspecific competitor for trnG.1], the binding result in series [5] is reported as “no binding”.

The values above are taken from paper PMC11671767, “GENOMES UNCOUPLED PROTEIN1 binds to plastid RNAs and promotes their maturation”.
